Measurements: patent US20120328625A1 (AstraZeneca / MedImmune, published 2012)

Experiments:
[1] = biological target: T1, full length human Shh expressed on the cell surface (human, UniProt Q15465 24-462); assay: cell-based or functional assay
[2] = biological target: T2, Shh-N in conditioned medium (human, UniProt Q15465 24-197, N-terminal palmitoyl modification; lacks the C-terminal cholesterol moiety); assay: cell-based or functional assay
[3] = biological target: T1, full length human Shh expressed on the …; assay: cell-based or functional assay; remark: listed apart in the source
[4] = biological target: T2, Shh-N in conditioned medium; assay: cell-based or functional assay; remark: listed apart in the source
[5] = biological target: T1, full length human Shh expressed on the …; assay: flow cytometry, transfected against parental 293T cells
Method: (§1) Finally, binding of antibody in exhaust hybridoma supernatants to native Shh was assessed using flow cytometry. […] Transfected or parental cells were seeded into the plates with V-bottom wells (50,000 cells/well). Exhaust supernatants (50 μl of a 1:10 dilution) were added to each well and incubated at 4° C. for 1 hr. […] It was added to a concentration of 2 μg/ml in a volume of 50 μl. Cells were washed and 50 μl of a 2 μg/ml solution of secondary antibody (Cy5-labeled goat-anti-human IgG or Cy5-labeled goat-anti-rabbit IgG) were added to each well. 7AAD was added to a concentration of 5 μg/ml and the mixture was incubated for 30 min at RT. The mean fluorescence for each sample was then determined using flow cytometry.

biotinylated human Shh = biological target: T3, biotinylated human Shh (human, UniProt Q15465 24-197, limits assumed, biotinylated); assay: ELISA, hybridoma supernatant on neutravidin-captured biotin-Shh
T3 construct: also called biotin-Shh; immobilized biotinylated Shh
Method: After blocking with 1% milk in PBS, 40 μl of 500 ng/ml biotinylated Shh in 1×PBS, 1% milk (wt/vol) was added to each well and incubated for 1 hr at RT. Hybridoma supernatants (10 μl/well) were added to 40 μl of 1% milk, 0.05% Tween-20 in PBS per well and incubated 1 hr at RT. Following washing and incubation with secondary antibody (100 ng/ml goat-anti-human IgG Fc HRP), wells were developed with TMB substrate and subsequently quenched with 1 N HCl.

[6] = biological target: T1, full length human Shh expressed on the …; assay: FMAT, hybridoma supernatant on 293T cells transiently expressing human Shh
Method: Cells were maintained at 1×10⁶ cells/ml overnight at 37° C., 5% CO₂. […] Supernatants were added to each well (10 μl/well) and incubated 1.5 hrs at RT. […] Plates were read on the FMAT 8100 HTS system from Applied Biosystems. Total signal (FL1×count) is defined as the number of positive cells in a well (count) multiplied by the average fluorescence intensity of the positive cells (FL1).

[7] = biological target: T1, full length human Shh expressed on the …; assay: flow cytometry, exhaust hybridoma supernatant 1:10, 293T cells transiently expressing human Shh
Method: as §1

[8] = biological target: T2, Shh-N in conditioned medium; assay: cell-based or functional assay; remark: listed apart in the source

| Binder | % Inh of Gli1 reporter, Co-Culture N = 1 [1] | % Inh of Gli1 reporter, Co-Culture N = 2 [1] | % Inh of Gli1 reporter, CM N = 1 [2] | % Inh of Gli1 reporter, CM N = 3 [2] | % Inhibition of Gli1 reporter, Co-Culture N = 1, 20 µg/ml [3] | % Inhibition of Gli1 reporter, Co-Culture N = 2, 20 µg/ml [3] | % Inhibition of Gli1 reporter, Co-Culture N = 3, 20 µg/ml [3] | % Inhibition of Gli1 reporter, Conditioned Media N = 1, 20 µg/ml [4] | % Inhibition of Gli1 reporter, Conditioned Media N = 2, 20 µg/ml [4] | ratio [5] | OD450 (biotinylated human Shh) | FL1 X COUNT [6] | X Geo Mean (Transients) [7] | IC50, inhibition of osteoblast differentiation (alkaline phosphatase) of C3H10T1/2 cells [8] |
| --- | --- | --- | --- | --- | --- | --- | --- | --- | --- | --- | --- | --- | --- | --- |
| 1F4 (antibody, V domains shown, fully human XenoMouse hybridoma antibody; tested as hybridoma supernatant and as purified antibody; also called MAb 1F4) VH: not shown VL: EIVMTQSPATLSVSPGERATLSCRASQSISSNLAWYQQKPGQAPRLLIYGASTRATGIPARFSGSGSGTEFTLTISSLQSEDFAVYFCQQYHSWWTFGQGTKVEIQ | 31% | 47% | 21% | 9% | 31% | 18% | 28% | 2% | 16% | 63.8 | 6 OD450 | 110000 | 219 |  |
| 1A5 (antibody, V domains shown, fully human XenoMouse hybridoma antibody; tested as hybridoma supernatant and as purified antibody; also called MAb 1A5) VH: EVQVVESGGDLIQPGGSLRLSCVASGFTVSSNYMNWVRQAPGKGLEWVSVIYSGGNTYYADSVKGRFTISRDNSKNTLYLQMNSLRAEDTAVYYCARDSSVVVGLGYFDLWGRGTLVTVSS VL: SYELTQPPSVSVSPGQTASITCSGDKLGANYASWYQQKPGQSPVLVIFQDTKRPSGIPERFSGSNSGNTATLTISGTQAMDEADYYCQAWDFSTVIFGGGTKLTVL | 20% | 27% | 73% | 62% | 25% | 20% | 20% | 35% | 34% | 70.5 | 6 OD450 | 304000 | 265 | 4.8 nM |
| 1C8 (antibody, V domains shown, fully human XenoMouse hybridoma antibody; tested as hybridoma supernatant and as purified antibody; also called MAb 1C8) VH: EVQLVESGGGLIQPGGSLRLSCAVSGFTVSSNCMNWVRQAPGKGLEWVSVIYSGGKTAYADSVKGRFTISRDNSKNTLCLQMNSLRAEDTAVYYCARDSSMVVGLGYFDLWGRGTLVTVSS VL: SYELTQPPSVSVSPGLTASITCSGDKLGYKYASWYQQKPGQSPVLVIYQDIKRPSGIPERFSGSNSGNTATLTISGTQAMDEADYYCQAWDSSTVVFGGGTKLTVL | 32% | 24% | 47% | 43% | 26% | 10% | 23% | -1% | 8% | 33.3 |  | 319000 | 118 |  |
| 1H8 (antibody, V domains shown, fully human XenoMouse hybridoma antibody; also called MAb 1H8) VH: QVQLQESGPGLVKPSETLSLTCTVSGGSISSYYWTWIRQPPGKGLEWIGYIYYSGSTNYNPSLKSRVTISVDTSKNQFSLKLSSVTAADTAVYYCARDRLLYGMDVWGQGTTVTVSS VL: not shown | 38% | 42% | 52% | 42% | 32% | 25% | 36% | 34% | 48% | 44.1 | 4.04 OD450 | 89600 | 165 | 5.7 nM |
| 1A12 (antibody, V domains shown, fully human XenoMouse hybridoma antibody; tested as hybridoma supernatant and as purified antibody; also called MAb 1A12) VH: QVYLVESGGGVVQPGRSLRLSCAASGFTFSSYGMHWVRQAPGKGLEWVAVIWYDGSNEYYADSVKGRFTISRDNSKNTLYLQMNSLRAEDTAVYYCARDLYYYGSGSPFDYWGQGTLVTVSS VL: EIVMTQSPATLSVSPGERATLSCRASQSVSSNLAWYQQKPGQAPRLLIFGVSIRATGIPARFSGSGSGTEFTLTISSLQSEDFAVYYCQQYNDWPRPGFGGGTKVEIK | 40% | 32% | 25% | 43% | 58% | 59% | 22% | 18% | 57% | 78.1 | 4.09 OD450 | 696000 | 290 | 4.6 nM |
| 1G12 (antibody, V domains shown, fully human XenoMouse hybridoma antibody; tested as hybridoma supernatant and as purified antibody; also called MAb 1G12) VH: QVQLVESGGGVVQPGRSLRLSCAASGFTFSTYGMHWVRQAPGKGLEWVAVIWYDGSNKYYADSVNGRFTISRDNSKNTLYLQMNSLRGEDTAVYYCARDLYYYGSGSPFDYWGQGTLVTVSS VL: EIVMTQSPATLSVSPGERVTLSCRASQSVSSNLAWYQQKPGQAPRLLIYGVSIRATGIPARFSGSGSGTEFTLTISSLQSEDFAVYYCQQYDNWPRPGFGGGTKVEIK | 30% | 35% | 32% | 40% | 35% | 43% | 28% | 23% | 44% | 2.2 | 2.49 OD450 | 327000 | 8.3 | 7.1 nM |

Next, values leading:

| % Inh of Gli1 reporter, Co-Culture N = 1 [1] | % Inh of Gli1 reporter, Co-Culture N = 2 [1] | % Inh of Gli1 reporter, CM N = 1 [2] | % Inh of Gli1 reporter, CM N = 3 [2] | % Inhibition of Gli1 reporter, Co-Culture N = 1, 20 µg/ml [3] | % Inhibition of Gli1 reporter, Co-Culture N = 2, 20 µg/ml [3] | % Inhibition of Gli1 reporter, Co-Culture N = 3, 20 µg/ml [3] | % Inhibition of Gli1 reporter, Conditioned Media N = 1, 20 µg/ml [4] | % Inhibition of Gli1 reporter, Conditioned Media N = 2, 20 µg/ml [4] | ratio [5] | OD450 (biotinylated human Shh) | FL1 X COUNT [6] | X Geo Mean (Transients) [7] | IC50, inhibition of osteoblast differentiation (alkaline phosphatase) of C3H10T1/2 cells [8] | Binder |
| --- | --- | --- | --- | --- | --- | --- | --- | --- | --- | --- | --- | --- | --- | --- |
| 48% | 19% | 38% | 40% | 8% | 15% | 13% | -5% | -5% | 9.1 | 3.73 OD450 | 1.11e+06 | 34.4 |  | 1H12 (antibody, V domains shown, fully human XenoMouse hybridoma antibody; tested as hybridoma supernatant and as purified antibody; also called MAb 1H12) VH: QVQLVQSGAEVKKPGASVKVSCKASGYTFTGYYMHWVRQAPGQGLEWVGWFNPNSGGTNCAQKFQGRVTMTRDTSISTAYMELSRLRSDDTAVYYCAREAVESYYYGLDVWGQGTTVTVSS VL: QSVVTQPPSASGTPGQRITISCSGSSSNIGSNYVYWYHQLPGSAPNLLIYRNNQRPSGVPDRFSGSKSGTSASLAISGLRSEDEADYFCAVWDDSLRGVVFGGGTKLTVL |
| 31% | 34% | 46% | 22% | 44% | 76% | 22% | 73% | 43% | 50.2 | 5.14 OD450 | 625000 | 196 | 3.3 nM | 4B6 (antibody, V domains shown, fully human XenoMouse hybridoma antibody; tested as hybridoma supernatant and as purified antibody; also called MAb 4B6) VH: QVQLVESGGGVVQPGRSLRLSCAASGFTFSTYGMHWVRQAPGKGLEWVAVIWYDGSNEYYADSVKGRFTISRDNSKNTLYLQMNSLRAEDTAVYYCARDLYYYGSGSPFDYWGQGTLVTVSS VL: EIVMTQSPATLSVSPGERATLSCRASQSVSSNLAWYQQKPGQAPRLLIFGISIRATGIPARFSGSGSGTEFTLTISSLQSEDFAVYYCQQYNDWPRPGFGGGTRVEIK |
| 37% | 23% | 43% | 28% | 47% | 68% | 4% | 48% | 24% | 40.9 | 3.46 OD450 | 370000 | 150 | 4.4 nM | 1H10 (antibody, V domains shown, fully human XenoMouse hybridoma antibody; tested as hybridoma supernatant and as purified antibody; also called MAb 1H10) VH: QVQLVESGGGVVQPGRSLRLSCAASGFTFSSYGMHWVRQAPGKGLEWVAVIWNDGSNEYYADSVKGRFTISRDNSKNTLYLQMNSLRAEDTAVYYCARDLYYYGSGSPFDDWGQGTLVTVSS VL: EIVMTQSPGTLSVSPGERATLSCRASQSVGSNLAWYQQKPGQAPRLLIFGVSIRATGVPARFSGSGSGTEFTLTISSLQSEDFAVYYCQQYNDWPRPGFGGGTKVEIK |
